Measurements from patent US9228020B2, “Compositions and methods for diagnosing and treating cancer” (OncoMed Pharmaceuticals, Inc., priority 2006, dated 2016).
Changes are numbered by the printed parent chain. One block for each molecule: values may come before it.

Molecular target: T1, DLL4 antigen (Homo sapiens, UniProt Q9NR61)
T1 construct: DLL4 antigen protein comprises approximately amino acid 27 through amino acid 522; made in house; host or cells: insect cells (baculovirus)
Assay: ELISA of conditioned media for DLL4 antigen binding (humanized variants)
Conditions: conditioned media of cotransfected HEK293 cells
Protocol: The functionality of each candidate variant humanized heavy and light chain was tested by cotransfection into mammalian cells. Each of the five candidate humanized 21M18 heavy chains described above was cotransfected with the murine 21M18 light chain cDNA into HEK 293 cells, and conditioned media was then assayed for DLL4 antigen binding activity by ELISA. […] This variant—“21M18 H2”—contained, in additional to murine CDRs, murine residues at five framework positions, Kabat positions 20, 28, 38, 48, and 69 (FIG. 4). The 21M18 H2 humanized heavy chain was then cotransfected with each of the five candidate humanized light chains into HEK293 cells, and conditioned media was again assayed for antigen binding by ELISA.
Next, the isolated cysteine residue in CDR2H2 (SEQ ID NO: 2) was altered. Specifically, two heavy chain variants of H2 were synthesized with the cysteine residue at Kabat position 52a modified to a serine (variant H7; SEQ ID NO: 3) or a valine (variant H9; SEQ ID NO: 4) residue. These heavy chains were cotransfected into HEK293 cells with L2, and conditioned media was again assayed. […] Thus 21M18 heavy chain CDR2 comprises SEQ ID NO: 2, 3, or 4 in which the residue at Kabat position 52a comprises a cysteine, serine, or valine residue.

T1 sequence (Q9NR61 27-522): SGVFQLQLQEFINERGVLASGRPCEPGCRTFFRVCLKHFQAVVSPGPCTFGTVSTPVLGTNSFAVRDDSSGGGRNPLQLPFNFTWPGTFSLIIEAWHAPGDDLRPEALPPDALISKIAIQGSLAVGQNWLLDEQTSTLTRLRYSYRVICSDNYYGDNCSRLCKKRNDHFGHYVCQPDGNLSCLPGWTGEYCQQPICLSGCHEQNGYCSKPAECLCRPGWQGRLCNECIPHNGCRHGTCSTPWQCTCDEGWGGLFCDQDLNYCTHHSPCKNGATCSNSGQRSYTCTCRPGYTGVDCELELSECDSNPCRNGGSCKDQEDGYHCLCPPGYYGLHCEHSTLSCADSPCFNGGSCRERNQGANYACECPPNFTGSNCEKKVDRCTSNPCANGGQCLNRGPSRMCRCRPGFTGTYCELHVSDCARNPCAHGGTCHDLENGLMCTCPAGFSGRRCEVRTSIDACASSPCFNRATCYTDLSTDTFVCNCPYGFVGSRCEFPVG

antigen binding by ELISA: demonstrated specific antigen binding
B1: 21M18 H7L2: humanized 21M18, heavy chain Kabat position 52a serine (H7) with L2; ATCC deposit no. PTA-8425 (antibody, V domains shown)
VH: QVQLVQSGAEVKKPGASVKISCKASGYSFTAYYIHWVKQAPGQGLEWIGYISSYNGATNYNQKFKGRVTFTTDTSTSTAYMELRSLRSDDTAVYYCARDYDYDVGMDYWGQGTLVTVSS
VL: DIVMTQSPDSLAVSLGERATISCRASESVDNYGISFMKWFQQKPGQPPKLLIYAASNQGSGVPDRFSGSGSGTDFTLTISSLQAEDVAVYYCQQSKEVPWTFGGGTKVEIK

antigen binding by ELISA: demonstrated specific antigen binding
B2: 21M18 H9L2: humanized 21M18, heavy chain Kabat position 52a valine (H9) with L2; ATCC deposit no. PTA-8427 (antibody, V domains shown)
VH: B1 VH with S53V
VL: B1 VL
